± gives the standard deviation of the averaged measurements.
Experiment: total protein half-life in vivo (active degradation + dilution); higher = more stable protein
[1] = E. coli NCM3722 delta-clpP delta-lon delta-hslV, growth: N-lim chemostat, doubling time 6 h
[2] = E. coli NCM3722 delta-clpP, growth: N-lim chemostat, doubling time 6 h
[3] = E. coli NCM3722 delta-hslV, growth: N-lim chemostat, doubling time 6 h
[4] = E. coli NCM3722 delta-lon, growth: N-lim chemostat, doubling time 6 h
[5] = E. coli NCM3722 delta-smpB, growth: N-lim chemostat, doubling time 6 h
[6] = wild type E. coli NCM3722, growth: C-lim chemostat, doubling time 3 h
[7] = wild type E. coli NCM3722, growth: C-lim chemostat, doubling time 6 h
[8] = wild type E. coli NCM3722, growth: C-lim chemostat, doubling time 12 h
[9] = wild type E. coli NCM3722, growth: N-lim chemostat, doubling time 6 h
[10] = wild type E. coli NCM3722, growth: N-lim chemostat, doubling time 12 h
[11] = wild type E. coli NCM3722, growth: P-lim chemostat, doubling time 6 h
[12] = wild type E. coli NCM3722, growth: P-lim chemostat, doubling time 12 h

| Sequence | total protein half-life in vivo [1] | total protein half-life in vivo [2] | total protein half-life in vivo [3] | total protein half-life in vivo [4] | total protein half-life in vivo [5] | total protein half-life in vivo [6] | total protein half-life in vivo [7] | total protein half-life in vivo [8] | total protein half-life in vivo [9] | total protein half-life in vivo [10] | total protein half-life in vivo [11] | total protein half-life in vivo [12] |
| --- | --- | --- | --- | --- | --- | --- | --- | --- | --- | --- | --- | --- |
| MSETAKKVIVGMSGGVDSSVSAWLLQQQGYQVEGLFMKNWEEDDGEEYCTAAADLADAQAVCDKLGIELHTVNFAAEYWDNVFELFLAEYKAGRTPNPDILCNKEIKFKAFLEFAAEDLGADYIATGHYVRRADVDGKSRLLRGLDSNKDQSYFLYTLSHEQIAQSLFPVGELEKPQVRKIAEDLGLVTAKKKDSTGICFIGERKFREFLGRYLPAQPGKIITVDGDEIGEHQGLMYHTLGQRKGLGIGGTKEGTEEPWYVVDKDVENNILVVAQGHEHPRLMSVGLIAQQLHWVDREPFTGTMRCTVKTRYRQTDIPCTVKALDDDRIEVIFDEPVAAVTPGQSAVFYNGEVCLGGGIIEQRLPLPV | 4.81 ± 0.17 h | 4.73 ± 0.56 h | 4.73 ± 0.06 h | 5.33 ± 0.43 h | 4.71 ± 0.32 h | 2.89 ± 0.46 h | 7.28 ± 0.86 h | 10.4 ± 1.7 h | 4.77 ± 0.39 h | 8.691 ± 0.075 h | 5.5 ± 0.061 h | 12 ± 1.4 h |
| MSEVEFSHEYWMRHALTLAKRAWDEREVPVGAVLVHNNRVIGEGWNRPIGRHDPTAHAEIMALRQGGLVMQNYRLIDATLYVTLEPCVMCAGAMIHSRIGRVVFGARDAKTGAAGSLMDVLHHPGMNHRVEITEGILADECAALLSDFFRMRRQEIKAQKKAQSSTD | 5.35 ± 0.49 h |  | > 8 h | 4.63 h |  |  |  |  |  |  | > 8 h | 10.7 ± 0.33 h |
| MSFDIAKYPTLALVDSTQELRLLPKESLPKLCDELRRYLLDSVSRSSGHFASGLGTVELTVALHYVYNTPFDQLIWDVGHQAYPHKILTGRRDKIGTIRQKGGLHPFPWRGESEYDVLSVGHSSTSISAGIGIAVAAEKEGKNRRTVCVIGDGAITAGMAFEAMNHAGDIRPDMLVILNDNEMSISENVGALNNHLAQLLSGKLYSSLREGGKKVFSGVPPIKELLKRTEEHIKGMVVPGTLFEELGFNYIGPVDGHDVLGLITTLKNMRDLKGPQFLHIMTKKGRGYEPAEKDPITFHAVPKFDPSSGCLPKSSGGLPSYSKIFGDWLCETAAKDNKLMAITPAMREGSGMVEFSRKFPDRYFDVAIAEQHAVTFAAGLAIGGYKPIVAIYSTFLQRAYDQVLHDVAIQKLPVLFAIDRAGIVGADGQTHQGAFDLSYLRCIPEMVIMTPSDENECRQMLYTGYHYNDGPSAVRYPRGNAVGVELTPLEKLPIGKGIVKRRGEKLAILNFGTLMPEAAKVAESLNATLVDMRFVKPLDEALILEMAASHEALVTVEENAIMGGAGSGVNEVLMAHRKPVPVLNIGLPDFFIPQGTQEEMRAELGLDAAGMEAKIKAWLA | 5.82 ± 0.5 h | 6.08 ± 0.29 h | 5.79 ± 0.18 h | 5.92 ± 0.57 h | 5.36 ± 0.085 h | 3.01 ± 0.11 h | 6.16 ± 0.82 h | 10.7 ± 1.4 h | 5.82 ± 0.11 h | 13.6 ± 0.63 h | 6.55 ± 0.58 h | 12.6 ± 0.56 h |
| MSFDLIIKNGTVILENEARVVDIAVKGGKIAAIGQDLGDAKEVMDASGLVVSPGMVDAHTHISEPGRSHWEGYETGTRAAAKGGITTMIEMPLNQLPATVDRASIELKFDAAKGKLTIDAAQLGGLVSYNIDRLHELDEVGVVGFKCFVATCGDRGIDNDFRDVNDWQFFKGAQKLGELGQPVLVHCENALICDELGEEAKREGRVTAHDYVASRPVFTEVEAIRRVLYLAKVAGCRLHVCHVSSPEGVEEVTRARQEGQDVTCESCPHYFVLDTDQFEEIGTLAKCSPPIRDLENQKGMWEKLFNGEIDCLVSDHSPCPPEMKAGNIMKAWGGIAGLQSCMDVMFDEAVQKRGMSLPMFGKLMATNAADIFGLQQKGRIAPGKDADFVFIQPNSSYVLTNDDLEYRHKVSPYVGRTIGARITKTILRGDVIYDIEQGFPVAPKGQFILKHQQ | 4.05 h |  |  | 3.35 h |  | 1.23 ± 0.55 h | 2.5 ± 0.8 h | 2.38 ± 0.29 h |  |  |  | 5.33 h |
| MSFELPALPYAKDALAPHISAETIEYHYGKHHQTYVTNLNNLIKGTAFEGKSLEEIIRSSEGGVFNNAAQVWNHTFYWNCLAPNAGGEPTGKVAEAIAASFGSFADFKAQFTDAAIKNFGSGWTWLVKNSDGKLAIVSTSNAGTPLTTDATPLLTVDVWEHAYYIDYRNARPGYLEHFWALVNWEFVAKNLAA [P0AGD3] | 5.3 ± 0.47 h | 5.56 ± 1.2 h | 4.773 ± 0.02 h | 6.2 ± 1.1 h | 4.8 ± 0.58 h | 3.18 ± 0.084 h | 5.96 ± 0.084 h | 11.6 ± 0.35 h | 5.07 ± 0.39 h | 9.76 ± 0.58 h | 5.95 ± 0.27 h | 12 ± 0.36 h |
| MSFFHASQRDALNQSLAEVQGQINVSFEFFPPRTSEMEQTLWNSIDRLSSLKPKFVSVTYGANSGERDRTHSIIKGIKDRTGLEAAPHLTCIDATPDELRTIARDYWNNGIRHIVALRGDLPPGSGKPEMYASDLVTLLKEVADFDISVAAYPEVHPEAKSAQADLLNLKRKVDAGANRAITQFFFDVESYLRFRDRCVSAGIDVEIIPGILPVSNFKQAKKFADMTNVRIPAWMAQMFDGLDDDAETRKLVGANIAMDMVKILSREGVKDFHFYTLNRAEMSYAICHTLGVRPGL [P0AEZ1] | 3.64 ± 0.65 h | 3.18 ± 0.53 h | 2.96 ± 0.52 h | 3.54 ± 0.14 h | 3.16 ± 0.31 h | 2.99 ± 0.18 h | 4.97 ± 0.25 h | 8.59 ± 0.26 h | 3.02 ± 0.1 h | 4.47 ± 0.053 h | 5.51 ± 0.12 h | 10.7 ± 0.34 h |
| MSFMVSEEVTVKEGGPRMIVTGYSSGMVECRWYDGYGVKREAFHETELVPGEGSRSAEEV | 5.18 h | 0.609 ± 0.66 h |  |  |  | 0.36 h | 0.469 h |  |  |  |  |  |
| MSFSEFYQRSINEPEQFWAEQARRIDWQTPFTQTLDHSNPPFARWFCEGRTNLCHNAIDRWLEKQPEALALIAVSSETEEERTFTFRQLHDEVNAVASMLRSLGVQRGDRVLVYMPMIAEAHITLLACARIGAIHSVVFGGFASHSVAARIDDAKPVLIVSADAGARGGKIIPYKKLLDDAISQAQHQPRHVLLVDRGLAKMARVSGRDVDFASLRHQHIGARVPVAWLESNETSCILYTSGTTGKPKGVQRDVGGYAVALATSMDTIFGGKAGSVFFCASDIGWVVGHSYIVYAPLLAGMATIVYEGLPTWPDCGVWWTIVEKYQVSRMFSAPTAIRVLKKFPTAEIRKHDLSSLEVLYLAGEPLDEPTASWVSNTLDVPVIDNYWQTESGWPIMAIARGLDDRPTRLGSPGVPMYGYNVQLLNEVTGEPCGVNEKGMLVVEGPLPPGCIQTIWGDDGRFVKTYWSLFSRPVYATFDWGIRDADGYHFILGRTDDVINVAGHRLGTREIEESISSHPGVAEVAVVGVKDALKGQVAVAFVIPKESDSLEDRDVAHSQEKAIMALVDSQIGNFGRPAHVWFVSQLPKTRSGKMLRRTIQAICEGRDPGDLTTIDDPASLDQIRQAMEE |  |  |  |  |  |  | 0.366 ± 0.12 h | 0.611 h |  |  |  |  |
| MSFWKVAAAQYEPRKTSLTEQVAHHLEFVRAAARQQCQLLVFPSLSLLGCDYSRRALPAPPDLSLLDPLCYAATTWRMTIIAGLPVEYNDRFIRGIAVFAPWRKTPGIYHQSHGACLGRRSRTITVVDEQPQGMDMDPTCSLFTTGQCLGEPDLLASARRLQFFSHQYSIAVLMANARGNSALWDEYGRLIVRADRGSLLLVGQRSSQGWQGDIIPLR | 5.47 h |  |  |  |  |  |  |  |  |  |  |  |

From the supplement of paper PMC11246515
